Results taken from paper PMC3298758.
Like-named read-outs stand apart in the source and are kept apart here. Ends that are not written are not given here.

How the values were obtained:
Factor X [1] = test: SPR
Factor X [2] = test: cross-linking
Factor X [3] = test: ELISA
[4] = target: Factor VIII light chain (A3C1C2 domains); test: ELISA
Factor X [5] = test: ELISA; remark: listed apart in the source
Factor X [6] = test: SPR; remark: listed apart in the source
Factor X [7] = test: cross-linking; remark: listed apart in the source

Row | Molecule | Kd (Factor X [1]) | further results
1 | A3C1C2 subunit from FVIII variant Leu2013Ala (from UniProt P00451 1709-2351) (domain or fragment) | 63.9 nM | –
2 | A3C1C2 subunit from FVIII variant Phe2014Ala (from UniProt P00451 1709-2351) (domain or fragment) | 104 nM | –
3 | A3C1C2 subunit from FVIII variant Thr2012Ala (from UniProt P00451 1709-2351) (domain or fragment) | 85.8 nM | –
4 | A3C1C2 subunit from FVIII variant Thr2012Ala/Leu2013Ala/Phe2014Ala (from UniProt P00451 1709-2351) (domain or fragment) | 239 nM | –
5 | A3C1C2 subunit from FVIII variant Thr2012Ala/Phe2014Ala (from UniProt P00451 1709-2351) (domain or fragment) | 193 nM | –
6 | Factor VIII light chain (A3C1C2 domains) (domain or fragment) | 165 nM | stoichiometry N (Factor X [2]): 1; Kd (Factor X [3]): 370 nM
7 | Factor X (natural protein) | – | Kd [4]: 89.9 nM; Ki [4]: 154 nM
8 | active site-modified activated protein C (DEGR-APC) (enzyme) | – | Ki [4]: 82.7 nM
9 | HAGMSTLFLV [synthetic peptide corresponding to FVIII A3 residues 2007-2016] | – | Ki (Factor X [5]): 152 µM; percent inhibition of FVIII LC binding to FX at 800 μM peptide (Factor X [5]): 80%; Kd (Factor X [6]): 7.7 µM
10 | HAGMSTLFLV (also: biotinylated, position not given here) [biotinylated 2007-2016 peptide] | – | stoichiometry N (Factor X [7]): 1

Continued by falling Kd (Factor X [1]), values first:

Row | Kd (Factor X [1]) | Molecule | further results
11 | 59.5 nM | A3C1C2 subunit from FVIII variant Met2010Ala (from UniProt P00451 1709-2351) (domain or fragment) | –
12 | 59.4 nM | A3C1C2 subunit from FVIII variant Ser2011Ala (from UniProt P00451 1709-2351) (domain or fragment) | –
13 | 57 nM | A3C1C2 subunit from recombinant wild type FVIII (from UniProt P00451 1709-2351) (domain or fragment) | –
14 | 55.7 nM | A3C1C2 subunit from FVIII variant Val2016Ala (from UniProt P00451 1709-2351) (domain or fragment) | –
15 | 45.1 nM | A3C1C2 subunit from FVIII variant Leu2015Ala (from UniProt P00451 1709-2351) (domain or fragment) | –
